Assay results published in PMC11077089, “Molecular basis of A. thaliana KEOPS complex in biosynthesizing tRNA t^6A” (Nucleic Acids Research, 2024).

Substrate: Nc1ncnc2c1ncn2[C@@H]1O[C@H](COP(=O)(O)OP(=O)(O)OP(=O)(O)O)[C@@H](O)[C@H]1O
Test: NADH-coupled ATPase assay (pyruvate kinase / lactate dehydrogenase), Michaelis-Menten
Format: biochemical, Arabidopsis thaliana
Details: no tRNA, 2 μM protein, 0–50 μM ATP, 5 mM MgCl2, pH 7.5, 25°C, BUD32 site

B1: AtKEOPS (wild-type KEOPS dimer, P2K2B2C2) (Arabidopsis thaliana) (protein)
chain: MDCEENVRDESLVLIKQGAEARVFESTFAGRRSIVKERFSKKYRHPILDAKLTLKRLNAEARCMTKARKLGVCTPVLYAVDTLLHSLTLEYIEGVSVKDIFLEFGTNGVVEERLDDVAAQIGAAIAKLHDGGLAHGDLTTSNMLVRSGTNQLVLIDFGLSVTSTLPEDKAVDLYVLERALLSMHSSCGNVMDRILTAYRKSSKQWSATFNKLAQVRQRGRKRTMIG
notes: reconstituted from KAE1-PCC1-6His and BUD32-CGI121-6His expressed in E. coli; SEC ~200 kDa dimer; some N-terminal KAE1 degradation; with tRNA N6-adenosine threonylcarbamoyltransferase KAE1; EKC/KEOPS complex subunit CGI121; EKC/KEOPS complex subunit PCC1
Km: 0.95 ± 0.053 µM
kcat: 0.019 ± 0.00073 s^–1
